Measured values taken from the supplement of paper PMC9112550, “Optimization of the antimicrobial peptide Bac7 by deep mutational scanning” (BMC Biology, 2022).

Test system: Escherichia coli TOP10
Test: shrunken log2 fold change of peptide-encoding DNA abundance (4.5 h post-induction vs induction); higher = less antimicrobial activity (less host growth inhibition)
Conditions: time post-induction: 4.5 h; library: site-saturation at positions 5, 18, 19, 20
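Also: peptides expressed intracellularly from a pBAD plasmid library in pooled LB shake-flask culture, induced with 0.3% L-arabinose, DNA abundance read by NGS, three biological replicates, DESeq2 with apeglm shrinkage.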

Sequence	shrunken log2 fold change
RRIRHRPPRLPRPRPRPFFKPRP	-0.149
RRIRHRPPRLPRPRPRPNTRPRP	-0.28
RRIRSRPPRLPRPRPRPAKKPRP	0.0292
RRIRFRPPRLPRPRPRPNNRPRP	-0.139
RRIRFRPPRLPRPRPRPFHRPRP	-0.0134
RRIRERPPRLPRPRPRPHMKPRP	-0.286
RRIRRRPPRLPRPRPRPEQQPRP	0.22
RRIRERPPRLPRPRPRPALEPRP	0.0291
RRIRTRPPRLPRPRPRPKCYPRP	-0.0601
RRIRDRPPRLPRPRPRPVPHPRP	0.012
RRIRVRPPRLPRPRPRPIALPRP	-0.238
RRIRKRPPRLPRPRPRPTATPRP	1.4
RRIRLRPPRLPRPRPRPNRVPRP	-0.0939
RRIRSRPPRLPRPRPRPFYLPRP	-0.818
RRIRPRPPRLPRPRPRPPSMPRP	0.29
RRIRIRPPRLPRPRPRPIHNPRP	-0.936
RRIRMRPPRLPRPRPRPLAFPRP	0.52
RRIRHRPPRLPRPRPRPIATPRP	-0.0153
RRIRKRPPRLPRPRPRPRDCPRP	0.306
RRIRLRPPRLPRPRPRPCNEPRP	-0.0438
RRIRERPPRLPRPRPRPPCFPRP	-0.0819
RRIRTRPPRLPRPRPRPNEQPRP	-0.0135
RRIRNRPPRLPRPRPRPAHTPRP	0.121
RRIRLRPPRLPRPRPRPNYYPRP	-0.773
RRIRVRPPRLPRPRPRPRAHPRP	0.00164

Sequence	shrunken log2 fold change
RRIRLRPPRLPRPRPRPLKLPRP	-0.117
RRIRCRPPRLPRPRPRPTFPPRP	-0.0779
RRIRGRPPRLPRPRPRPAMPPRP	0.492
RRIRPRPPRLPRPRPRPIWQPRP	0.0572
RRIRERPPRLPRPRPRPSQWPRP	-0.176
RRIRFRPPRLPRPRPRPMQFPRP	-0.0783
RRIRCRPPRLPRPRPRPQPFPRP	0.00986
RRIRQRPPRLPRPRPRPMEVPRP	-0.0855
RRIRQRPPRLPRPRPRPLVPPRP	0.253
RRIRLRPPRLPRPRPRPCMNPRP	-0.07
RRIRMRPPRLPRPRPRPRHWPRP	0.477
RRIRARPPRLPRPRPRPYIRPRP	-0.406
RRIRMRPPRLPRPRPRPWFVPRP	-0.283
RRIRGRPPRLPRPRPRPHPCPRP	0.922
RRIRHRPPRLPRPRPRPPYWPRP	1.65
RRIRPRPPRLPRPRPRPTYIPRP	-0.0167
RRIRGRPPRLPRPRPRPWHPPRP	0.49
RRIRTRPPRLPRPRPRPWVRPRP	0.0999
RRIRCRPPRLPRPRPRPACAPRP	0.433
RRIRRRPPRLPRPRPRPWRRPRP	0.358
RRIRCRPPRLPRPRPRPLTYPRP	-0.19
RRIRPRPPRLPRPRPRPWHPPRP	-0.227
RRIRIRPPRLPRPRPRPYAMPRP	-0.411
RRIRLRPPRLPRPRPRPNNSPRP	-0.952
RRIRQRPPRLPRPRPRPNYAPRP	-0.0208

Sequence	shrunken log2 fold change
RRIRGRPPRLPRPRPRPDRRPRP	-0.12
RRIRPRPPRLPRPRPRPPHIPRP	0.806
RRIRYRPPRLPRPRPRPTQSPRP	0.0623
RRIRKRPPRLPRPRPRPFLYPRP	-0.436
RRIRQRPPRLPRPRPRPGCFPRP	0.0403
RRIRCRPPRLPRPRPRPGKSPRP	0.0822
RRIRCRPPRLPRPRPRPNDTPRP	-0.461
RRIRERPPRLPRPRPRPEAHPRP	0.201
RRIRPRPPRLPRPRPRPYMDPRP	-0.447
RRIRHRPPRLPRPRPRPDCHPRP	0.0149
RRIRNRPPRLPRPRPRPKEDPRP	0.0361
RRIRLRPPRLPRPRPRPRCAPRP	0.504
RRIRERPPRLPRPRPRPEGQPRP	-0.015
RRIRNRPPRLPRPRPRPQWNPRP	-0.319
RRIRNRPPRLPRPRPRPSQYPRP	-0.268
RRIRHRPPRLPRPRPRPCEIPRP	-0.171
RRIRERPPRLPRPRPRPHVKPRP	-0.767
RRIRWRPPRLPRPRPRPMHQPRP	0.067
RRIRKRPPRLPRPRPRPIDAPRP	0.318
RRIRHRPPRLPRPRPRPNAHPRP	-0.0872
RRIRRRPPRLPRPRPRPSFEPRP	0.234
RRIRCRPPRLPRPRPRPCTDPRP	0.0806
RRIRFRPPRLPRPRPRPQWHPRP	-0.461
RRIRNRPPRLPRPRPRPCCEPRP	0.0852
RRIRDRPPRLPRPRPRPPGQPRP	0.0311

Sequence	shrunken log2 fold change
RRIRFRPPRLPRPRPRPPGYPRP	0.0848
RRIRDRPPRLPRPRPRPLGFPRP	-0.0377
RRIRLRPPRLPRPRPRPNVPPRP	-0.213
RRIRSRPPRLPRPRPRPCINPRP	-0.5
RRIRGRPPRLPRPRPRPMQVPRP	0.162
RRIRQRPPRLPRPRPRPAYLPRP	0.0774
RRIRVRPPRLPRPRPRPRDFPRP	0.0486
RRIRPRPPRLPRPRPRPPRSPRP	0.518
RRIRQRPPRLPRPRPRPCPCPRP	-0.354
RRIRLRPPRLPRPRPRPEGLPRP	0.206
RRIRSRPPRLPRPRPRPHYFPRP	-0.51
RRIRLRPPRLPRPRPRPNQFPRP	0.0261
RRIRHRPPRLPRPRPRPMAGPRP	-0.0581
RRIRDRPPRLPRPRPRPHDKPRP	0.0278
RRIRARPPRLPRPRPRPFQHPRP	-0.162
RRIRCRPPRLPRPRPRPFSQPRP	-0.209
RRIRRRPPRLPRPRPRPIQTPRP	0.00408
RRIRNRPPRLPRPRPRPICRPRP	-0.0024
RRIRFRPPRLPRPRPRPYEHPRP	-0.0962
RRIRVRPPRLPRPRPRPPCHPRP	-0.451
RRIRDRPPRLPRPRPRPFRGPRP	0.0499
RRIRFRPPRLPRPRPRPLIWPRP	-0.13
RRIRRRPPRLPRPRPRPCCYPRP	0.0352
RRIRKRPPRLPRPRPRPNWFPRP	0.188
RRIRERPPRLPRPRPRPLLPPRP	-0.119

Sequence	shrunken log2 fold change
RRIRPRPPRLPRPRPRPTVCPRP	0.149
RRIRWRPPRLPRPRPRPMWSPRP	0.266
RRIRKRPPRLPRPRPRPAMHPRP	0.402
RRIRARPPRLPRPRPRPIFPPRP	0.32
RRIRGRPPRLPRPRPRPVLAPRP	0.773
RRIRPRPPRLPRPRPRPDCQPRP	-0.0657
RRIRKRPPRLPRPRPRPKAQPRP	0.313
RRIRARPPRLPRPRPRPGQDPRP	0.15
RRIRNRPPRLPRPRPRPSKSPRP	-0.227
RRIRDRPPRLPRPRPRPPTPPRP	0.564
RRIRGRPPRLPRPRPRPSQVPRP	0.235
RRIRWRPPRLPRPRPRPMDNPRP	-0.0894
RRIRSRPPRLPRPRPRPTPNPRP	0.306
RRIRPRPPRLPRPRPRPHYAPRP	-0.15
RRIRGRPPRLPRPRPRPYNKPRP	-0.593
RRIRMRPPRLPRPRPRPWGQPRP	-0.0394
RRIRWRPPRLPRPRPRPMWNPRP	-0.0699
RRIRMRPPRLPRPRPRPETTPRP	3.65
RRIRHRPPRLPRPRPRPYCPPRP	-0.0225
RRIRARPPRLPRPRPRPWYHPRP	-0.0138
RRIRERPPRLPRPRPRPQSDPRP	-0.134
RRIRGRPPRLPRPRPRPRLMPRP	0.617
RRIRPRPPRLPRPRPRPMDTPRP	-0.276
RRIRHRPPRLPRPRPRPWCIPRP	-0.228
RRIRIRPPRLPRPRPRPRGWPRP	0.385
